In patent US20240034792A1 one finds Maximum (MFI) data, which are given here for 1 substance.

For this assay, the target named is Human PD-1 expressed on CHO-K1 cells (CHO-K1/hPD-1) (human) (UniProt Q15116). As to the kind of experiment: FACS, CHO-K1/hPD-1 cells. On the technique in general: Flow cytometry measures light scatter and fluorescence of single cells or particles in a stream.
Sequence of Human PD-1 expressed on CHO-K1 cells (CHO-K1/hPD-1) (human) (Q15116 25-288): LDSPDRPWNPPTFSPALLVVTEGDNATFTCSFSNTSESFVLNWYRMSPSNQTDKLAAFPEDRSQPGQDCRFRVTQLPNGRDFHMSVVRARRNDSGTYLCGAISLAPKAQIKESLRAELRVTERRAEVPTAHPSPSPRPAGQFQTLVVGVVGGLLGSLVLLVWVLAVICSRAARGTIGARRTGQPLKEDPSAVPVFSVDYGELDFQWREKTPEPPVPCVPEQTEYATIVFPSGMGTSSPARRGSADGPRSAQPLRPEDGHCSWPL

hIgG1 (antibody) returned a Maximum (MFI) of 49300.
